Test results: PMC5611513 (Frontiers in Cellular and Infection Microbiology, 2017)

Molecular target: T1, TplEi (Pseudomonas aeruginosa, UniProt Q9I3K3)
T1 sequence: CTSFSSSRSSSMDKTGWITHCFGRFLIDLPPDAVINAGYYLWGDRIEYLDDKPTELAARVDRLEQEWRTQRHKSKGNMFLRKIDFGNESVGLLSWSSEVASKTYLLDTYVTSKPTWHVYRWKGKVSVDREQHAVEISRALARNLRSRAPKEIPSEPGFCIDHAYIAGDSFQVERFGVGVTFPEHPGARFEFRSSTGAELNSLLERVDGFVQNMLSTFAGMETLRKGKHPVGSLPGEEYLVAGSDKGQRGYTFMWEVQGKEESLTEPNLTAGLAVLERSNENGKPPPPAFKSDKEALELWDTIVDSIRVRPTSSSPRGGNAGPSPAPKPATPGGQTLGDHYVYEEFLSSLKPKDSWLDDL
Assay: ITC
Details: both partners purified

B1: B peptides (“L” peptide, TplE 82-108 plus EQ) (peptide)
peptide: Ac-DDLFASIGALWTWAWRGPKARQELLKAEQ-NH2
notes: source: synthetic peptide (solid-phase FMOC, Scilight Biotechnology LLC, HPLC purified)
Kd: 478 nM

B2: A peptides (“L” peptide, TplE 82-108 plus EQVEVDD) (peptide)
peptide: Ac-DDLFASIGALWTWAWRGPKARQELLKAEQVEVDD-NH2
notes: as for B1
Kd: ~125 nM
